Measured values reported in patent publication US11203633B2, “Polynucleotides encoding antibodies or antigen binding fragments thereof that bind pseudomonas perv” (priority 2011, dated 2021).
Where a chain is given by its changes, count along the chain named. In names and notes the source's numbering stands.

Key:
[1] = tested on: P. aeruginosa strains (PAO1, 33356, 6294, 6077, 6206); experiment: Acute pneumonia model in mice, organ burden (CFU in lung, spleen, kidneys); format: in vivo, Pseudomonas aeruginosa
Method: (§1) Antibodies or PBS were administered 24 hours before infection in each model. P. aeruginosa acute pneumonia, keratitis, and thermal injury infection models were performed as described (DiGiandomenico, A., et al., Proc Natl Acad Sci USA 104, 4624-4629 (2007)), with modifications. In the acute pneumonia model, BALB/c mice (The Jackson Laboratory) were infected with P. aeruginosa strains suspended in a 0.05 ml inoculum. In the thermal injury model, CF-1 mice (Charles River) received a 10% total body surface area burn with a metal brand heated to 92° C. for 10 seconds. Animals were infected subcutaneously with P. aeruginosa strain 6077 at the indicated dose. For organ burden experiments, acute pneumonia was induced in mice followed by harvesting of lungs, spleens, and kidneys 24 hours post-infection for determination of CFU.
Organ burden of Pseudomonas-infected mice was also studied in response to administration of V2L2. FIG. 14 (A) Mice were treated with either 1 mg/kg R347 (control), or 1 mg/kg, 0.2 mg/kg, or 0.07 mg/kg of V2L2 and then were infected intranasally with 1.2×10^6 cfu of Pseudomonas 6206. FIG. 14 (B) Mice were also treated with either 15 mg/kg R347 (negative control); 15.0 mg/kg, 5.0 mg/kg, or 1.0 mg/kg mAb166 (positive control); or 5.0 mg/kg, 1.0 mg/kg, or 0.2 mg/kg V2L2 and then were infected intranasally with 5.5×10^6 cfu of Pseudomonas 6206.
The in vivo effect of combination administration of anti-Psl and anti-PcrV binding domains was further studied in mice using the antibodies V2L2 and WapR-004 (RAD). Groups of mice were treated with R347 (2.1 mg/kg—negative control), V2L2 (0.1 mg/kg), W4-RAD (0.5 mg/kg), or V2L2/W4 combination (either 0.1, 0.5, 1.0 or 2.0 mg/kg each). Twenty-four hours post-administration of antibody, all mice were infected with an inoculum containing 5.25×10^5 cfu 6206 (O11-ExoU+). Twenty-four hours post infection, lungs, spleens, and kidneys were harvested, homogenized, and plated for colony forming unit (CFU) identification per gram of tissue.

[2] = tested on: P. aeruginosa strains (PAO1, 33356, 6294, 6077, 6206, PA103A); experiment: Acute pneumonia model in mice, survival; format: in vivo, Pseudomonas aeruginosa
Method: as §1
The in vivo effect of administration of an anti-PcrV antibodies was studied in mice using an acute pneumonia model. Groups of mice were treated with either increasing concentrations of the V2L2 antibody, a positive control anti-PcrV antibody (mAb166), or a negative control (R347), as shown in FIG. 13 (A-B). Groups of mice were also treated with either increasing concentrations of the V2L2 antibody, the PcrV antibody PcrV-02, or a negative control (R347), as shown in FIG. 13 (C-D). Twenty-four hours after treatment, all mice were infected with 5×10^7 CFU (C) Pseudomonas aeruginosa 6294 (06) or (D) PA103A (O11).
Groups of mice were treated with either increasing concentrations of the 11A6, 3G5 or V2L7, the same concentrations of 29D2, 1F3, 1E6, V2L2, LE10, SH3, 4A8, 2H3, or 21F1, increasing concentrations of the 29D2, increasing concentrations of the V2L2, the PcrV antibody PcrV-02, or a negative control (R347), as shown in FIG. 13 (E-H). Mice were injected intraperitoneally (IP) with mAbs 24 hours prior to intranasal infection with Pseudomonas strain 6077 (1×10^6 CFU/animal).

[3] = tested on: luminescent P. aeruginosa serogroup 011 strain (9882-80.lux); experiment: OPK assay, 9882-80.lux; format: cell-based, Pseudomonas aeruginosa; settings: strain 9882-80 (O11); FIG. 2B
Method: (§2) This example describes the evaluation of prioritized human IgG1 antibodies to promote OPK of P. aeruginosa. […] OPK assays were performed as described in (DiGiandomenico, A., et al., Infect Immun 72, 7012-7021 (2004)), with modifications. Briefly, assays were performed in 96-well plates using 0.025 ml of each OPK component; P. aeruginosa strains; diluted baby rabbit serum; differentiated HL-60 cells; and monoclonal antibody. In some OPK assays, luminescent P. aeruginosa strains, which were constructed as described (Choi, K. H., et al., Nat Methods 2, 443-448 (2005)), were used. Luminescent OPK assays were performed as described above but with determination of relative luciferase units (RLUs) using a Perkin Elmer ENVISION Multilabel plate reader (Perkin Elmer).
The ability of the WapR-004 and Cam-003 antibodies to mediate OPK activity against another clinically relevant 0-antigen serotype strain, 9882-80.lux, was evaluated.

[4] = tested on: luminescent P. aeruginosa serogroup 05 strain (PAO1.lux); experiment: Opsonophagocytic killing (OPK) assay, PAO1.lux; format: cell-based, Pseudomonas aeruginosa; settings: purified human IgG1 mAbs from phage panning; FIG. 2A
Method: as §2

[5] = tested on: P. aeruginosa strain 6077 (O11-cytotoxic); experiment: Corneal infection (ocular keratitis) model in mice; format: in vivo, Pseudomonas aeruginosa
[6] = tested on: P. aeruginosa strains 6206 and 6294; experiment: Acute pneumonia model in mice, histological examination of lung tissue; format: in vivo, Pseudomonas aeruginosa
[7] = tested on: P. aeruginosa strain 6077 (O11-cytotoxic); experiment: Corneal infection (ocular keratitis) model in mice; format: in vivo, Pseudomonas aeruginosa; settings: C3H/HeN mice; IP, 16 hours prior to infection with 6077 1×10^6 CFU; graded at 48 h; FIG. 8H
Method: as §1
Cam-003 and WapR-004 efficacy was next evaluated in a P. aeruginosa corneal infection model which emphasizes the pathogens ability to attach and colonize damaged tissue. […] FIG. 8 (H): The activity of anti-Psl and anti-PcrV monoclonal antibodies V2L2 was tested in a P. aeruginosa mouse ocular keratitis model. […]

[8] = 6294 (06) and 6206 (O11), FIG. 7E-F
[9] = Table 5, 6206 5.25×10^5 cfu, R347 2.1 mg/kg, V2L2 0.1 mg/kg, WapR-004 0.5 mg/kg
[10] = Table 6A, strain 6294 1.33×10^7 CFU, 0.2 mg/kg (combination 0.1 mg/kg ea)
[11] = Table 6B, strain 6294 1.7×10^7 CFU, 0.2 mg/kg (combination 0.1 mg/kg ea)
[12] = Table 7, strain 6206 9.25×10^5 CFU, 0.2 mg/kg (combination 0.1 mg/kg ea)

B1: WapR-004: anti-Psl human IgG1 monoclonal antibody; VH SEQ ID NO:11, VL SEQ ID NO:12 (antibody, V domains shown)
VH: EVQLLESGPGLVKPSETLSLTCNVAGGSISPYYWTWIRQPPGKGLELIGYIHSSGYTDYNPSLKSRVTISGDTSKKQFSLHVSSVTAADTAVYFCARGDWDLLHALDIWGQGTLVTVSS
VL: EIVLTQSPSSLSTSVGDRVTITCRASQSIRSHLNWYQQKPGKAPKLLIYGASNLQSGVPSRFSGSGSGTDFTLTISSLQPEDFATYYCQQSYSFPLTFGGGTKLEIK
modifications: human IgG1 constant regions not cited; WapR-004 VH; WapR-004 & WarR-004RAD VL
- organ burden ([1]; 6206 (O11-ExoU+) 5.25×10^5 cfu, V2L2 0.1 mg/kg, W4-RAD 0.5 mg/kg, FIG. 15): effective in lowering organ burden
- viable CFU vs. R347, Mann-Whitney U-test P ([1]; 6206, kidney, 5 mg/kg, FIG. 7F): 0.0268
- viable CFU vs. R347, Mann-Whitney U-test P ([1]; 6206, kidney, 15 mg/kg, FIG. 7F): 0.0208
- viable CFU vs. R347, Mann-Whitney U-test P ([1]; 6206, lung, 1 mg/kg, FIG. 7F): 0.0079
- viable CFU vs. R347, Mann-Whitney U-test P ([1]; 6206, lung, 5 mg/kg, FIG. 7F): 0.0006
- viable CFU vs. R347, Mann-Whitney U-test P ([1]; 6206, spleen, 1 mg/kg, FIG. 7F): 0.0047
- viable CFU vs. R347, Mann-Whitney U-test P ([1]; 6206, spleen, 5 mg/kg, FIG. 7F): 0.0261
- viable CFU vs. R347, Mann-Whitney U-test P ([1]; 6206, spleen, 15 mg/kg, FIG. 7F): 0.0059
- dissemination to the spleen and kidneys [1, 8]: effective at reducing P. aeruginosa dissemination to the spleen and kidneys
- organ burden [1, 8]: reduced organ burden
- viable CFU vs. R347, Mann-Whitney U-test P ([1]; 6294 ~1×10^7 CFU, lung, 1 mg/kg, FIG. 7E): 0.0002
- viable CFU vs. R347, Mann-Whitney U-test P ([1]; 6294 ~1×10^7 CFU, lung, 5 mg/kg, FIG. 7E): 0.0004
- viable CFU vs. R347, Mann-Whitney U-test P ([1]; 6294 ~1×10^7 CFU, lung, 15 mg/kg, FIG. 7E): 0.0011
- viable CFU vs. R347, Mann-Whitney U-test P ([1]; 6294 ~1×10^7 CFU, spleen, 5 mg/kg, FIG. 7E): 0.0014
- survival ([2]; strain 6077 (O11) 8×10^5 or 6×10^5 CFU, 5 and 1 mg/kg, FIG. 6E-F): significant concentration-dependent survival
- OPK activity [3]: OPK activity extends to strain 9882-80 (O11)
- OPK activity (killing of PAO1.lux) [4]: superior OPK activity
- corneal pathology and bacterial counts vs negative control-treated animals ([5]; 6077, antibody 24 hours prior to infection, FIG. 8A-D, F-G): significantly less pathology and reduced bacterial counts in total eye homogenates
- Cam-003 (45 mg/kg) vs. WapR-004 (15 mg/kg), Mann-Whitney U-test P ([5]; FIG. 8F-G): 0.0025
- Cam-003 (45 mg/kg) vs. WapR-004 (45 mg/kg), Mann-Whitney U-test P ([5]; FIG. 8F-G): 0.018
- WapR-004 (45 mg/kg) vs. WapR-004 (15 mg/kg), Mann-Whitney U-test P ([5]; FIG. 8F-G): 0.1331
- Inflammatory Infiltrate [6, 9]: PMN 2-3+
- Involved Lung Surface Area [6, 9]: 50%
- Overall Impression [6, 9]: Broncho interstitial pneumonia
- Overall Impression ([6]; Table 6A, BALB/c mice, strain 6294 1.33×10^7 CFU, 0.2 mg/kg (combination 0.1 mg/kg ea)): Broncho interstitial pneumonia
- Hemorrhage (extent) [6, 10]: Extensive
- Inflammatory Infiltrate [6, 10]: PMN 3+
- Involved Lung Surface Area [6, 10]: (57%), mod epithelial injury,
- Overall Impression ([6]; Table 6B, BALB/c mice, strain 6294 1.7×10^7 CFU, 0.2 mg/kg (combination 0.1 mg/kg ea)): Broncho interstitial pneumonia
- Bacteria [6, 11]: Neg-2+
- Inflammatory Infiltrate [6, 11]: PMN 2+
- Involved Lung Surface Area [6, 11]: (40%), mod epithelial injury,
- Overall Impression ([6]; Table 7, BALB/c mice, strain 6206 9.25×10^5 CFU, 0.2 mg/kg (combination 0.1 mg/kg ea)): Broncho interstitial pneumonia
- Bacteria [6, 12]: Neg-1+
- Inflammatory Infiltrate [6, 12]: PMN 2+
- Involved Lung Surface Area [6, 12]: (36%), mild epithelial injury,

B2: WapR-004RAD: identical to WapR-004 except for an amino acid substitution G98A of the VH; VH SEQ ID NO:74, VL SEQ ID NO:12 (antibody, V domains shown)
VH: B1 VH with G98A
VL: B1 VL
modifications: WapR-004RAD VH; WapR-004 & WarR-004RAD VL
- organ burden in lung, spleen, kidney ([1]; 6294 2.5×10^7 CFU, bispecifics 0.7 mg/kg, W4-RAD 0.5 mg/kg, FIG. 23A): had no effect on decreasing organ burden
- corneal pathology and CFU in total eye homogenates vs R347 [7]: significantly less pathology and reduced bacterial colony forming units (CFU) in total eye homogenates
- animals survived ([2]; 6206, W4-RAD 0.2 mg/kg, monitored 120 hours, FIG. 21A): Approximately 90%
- effect on survival ([2]; 6294, W4-RAD 0.2 mg/kg, FIG. 24): did not affect survival
